The target in the assay is MBP-Cnn fusion containing the WT PReM domain (MBP-Cnn-WT) (Drosophila melanogaster). The assay is described as follows: SEC-MALS; purified MBP-Cnn fusions; equal volume of protein at 15, 75 or 300 uM loaded onto the column; expected monomer mass 67.4 kDa (by MS). For orientation: Size exclusion chromatography separates by hydrodynamic size, large species first.

This is an account of results in publication PMC3988887.

For orientation: stoichiometry N means the number of molecules, sites or subunits per partner or assembly. In the case of “MBP-Cnn fusion containing the WT PReM domain (MBP-Cnn-WT) (domain or fragment)”, the stoichiometry N is 2.
